Measured values published in the RNAGym collection of RNA variant scans (doi:10.7554/elife.80360).

B1: Twister Ribozyme (parent)
chain: AACACUGCCAAUGCCGGUCCCAAGCCCGGAUAAAAGUGGAGGGGGCGG

Variants of: B1
Assay: self-cleavage, relative activity (ratio to wild type); higher = more cleavage; co-transcriptional

Variant	self-cleavage
AACAUUGCCGAUGCCGGUCCCAAGCCCGGAUAAAAGUGGAGGGGGCGG [C5U A10G]	0.869
AACACUGCCAAUGCCGGUCCCAAGCCCGGAUAUAAGUGGAGGGGGGGG [A33U C46G]	0.921
AACACUGCAAAUGCCGGUCCCAAGCCCGGAUAAAAGUGGAGGGAGCGG [C9A G44A]	0.664
AACACUGCCAAUGCCGGUCUCAAGCCCGGAUAAAAGUGGCGGGGGCGG [C20U A40C]	0.0976
AACACUGCCAAUGGCGAUCCCAAGCCCGGAUAAAAGUGGAGGGGGCGG [C14G G17A]	0.122
AACACUGCGAAUGCCGGUCCCAAGCCCGGAUAAAAGGGGAGGGGGCGG [C9G U37G]	0.327
AACACUGCCAAUACCGGUCCCAAGCCCGGAUAAAAGUGGAGGGGGCGA [G13A G48A]	0.659
AAGACUGCCAAUGCCGGUGCCAAGCCCGGAUAAAAGUGGAGGGGGCGG [C3G C19G]	0.107
AACACUGUCAACGCCGGUCCCAAGCCCGGAUAAAAGUGGAGGGGGCGG [C8U U12C]	0.753
AACACUGCCAAUGCCGGUCUCAAGCCCGGAUAAAAGUGGAGGGGGCAG [C20U G47A]	0.859
AACACUGCCAAUGCCGGUCCCAAGCCCGCAUGAAAGUGGAGGGGGCGG [G29C A32G]	0.519
AACAGUGCCAAUGCCGGUCCCAAGCACGGAUAAAAGUGGAGGGGGCGG [C5G C26A]	0.126
AACACUGCGAAUGCCGGUCCCAAGCCCGGAUAAAAGUGCAGGGGGCGG [C9G G39C]	0.132
AACACUGCCAAUGCCGGUCGCAAGCCCGGAUAAAAGUGGAGGGGGCGC [C20G G48C]	0.157
AAGACUGCCAACGCCGGUCCCAAGCCCGGAUAAAAGUGGAGGGGGCGG [C3G U12C]	0.447
AUCACUUCCAAUGCCGGUCCCAAGCCCGGAUAAAAGUGGAGGGGGCGG [A2U G7U]	0.0853
AACACUGCCAAUGCUGGUCCCAAGCCCGGAUAACAGUGGAGGGGGCGG [C15U A34C]	0.205
AACACAGCCAAUGCCGGUCCCAAGCCCGGAUAAAAGUGGAAGGGGCGG [U6A G41A]	0.203
AACACUGCCAAUGCCGGUCCCAAGCUCGGAUAAUAGUGGAGGGGGCGG [C26U A34U]	0.124
AACACUGCCAAUGCCGCUCCCAAGCCCGGAAAAAAGUGGAGGGGGCGG [G17C U31A]	0.138
AGCACGGCCAAUGCCGGUCCCAAGCCCGGAUAAAAGUGGAGGGGGCGG [A2G U6G]	0.161
AACUCUGCCAAUGCCGUUCCCAAGCCCGGAUAAAAGUGGAGGGGGCGG [A4U G17U]	0.0471
AACAAUGCCAAUGCCGGUCCCAAGCCCGGAUAGAAGUGGAGGGGGCGG [C5A A33G]	0.472
CACACUGCCAAUGCCGGUCCCAAGCCCGGAUCAAAGUGGAGGGGGCGG [A1C A32C]	0.188
AGCACUGCCAAUGCCGGUCCCAAGCCCGGAUGAAAGUGGAGGGGGCGG [A2G A32G]	0.317
AACACUGCCAAUGCCGGUCGCAAGCCCGGAUAAAAGUGGAGGGGGCUG [C20G G47U]	0.131
AACACUGCCAAUGCCGCUCCCAAGCCGGGAUAAAAGUGGAGGGGGCGG [G17C C27G]	0.195

Variant	self-cleavage
AACACUGCCAAUGCCCGUCCCAAGACCGGAUAAAAGUGGAGGGGGCGG [G16C C25A]	0.0993
AACACUUCCAAAGCCGGUCCCAAGCCCGGAUAAAAGUGGAGGGGGCGG [G7U U12A]	0.0775
AACACUGCCAAUUCCGUUCCCAAGCCCGGAUAAAAGUGGAGGGGGCGG [G13U G17U]	0.101
AACACAGCCAUUGCCGGUCCCAAGCCCGGAUAAAAGUGGAGGGGGCGG [U6A A11U]	1.03
AACACCGCCAAUGCCGGUCCCAAGCCCGAAUAAAAGUGGAGGGGGCGG [U6C G29A]	0.34
AACACUCCCAAUGCCGGUCCCAAGCGCGGAUAAAAGUGGAGGGGGCGG [G7C C26G]	0.0717
AACACUGCCAAUGCCGCUCCCGAGCCCGGAUAAAAGUGGAGGGGGCGG [G17C A22G]	0.0562
AACACUGCCAAUGCCGGUCCCAAGCCCGGAUAGAAGUGCAGGGGGCGG [A33G G39C]	0.118
AACACUGCCAAUGCCGGUCCCAAGCCUGCAUAAAAGUGGAGGGGGCGG [C27U G29C]	0.124
AACAUUGCCAAUGCCGGUCCCAAGCCCCGAUAAAAGUGGAGGGGGCGG [C5U G28C]	0.434
AACCCUGCCAAUGCCGGACCCAAGCCCGGAUAAAAGUGGAGGGGGCGG [A4C U18A]	0.0406
AACACCGCCAAUGCCGGUCCCAAACCCGGAUAAAAGUGGAGGGGGCGG [U6C G24A]	0.0737
AACACUGCCAAUGCUGGUCCCAAACCCGGAUAAAAGUGGAGGGGGCGG [C15U G24A]	0.1
UACACUGCCAAUGCCGGUCCCAAGCCCGGGUAAAAGUGGAGGGGGCGG [A1U A30G]	0.074
UACACUGCCAAUGCCGGUCCCAAGCCCGGAUAAUAGUGGAGGGGGCGG [A1U A34U]	0.0731
AACAAUGCCAAUGCCGGUCCCAAGCCCGGAUAAAAGUGGAGGGGCCGG [C5A G45C]	0.16
AACACUGCCAAUGCCGGUCCCAAGCCCGGAUAAAAGUGGACGGGGCGG [G41C]	0.326
UACACUGCCAAUGCCGGUCCCAAGCCCGGAUAAAAGUGGAGGGGACGG [A1U G45A]	0.0481
AACAGUGCCAAUGCCGGUCCCAAGCCCGGAUAAAAGUGGAGGGGGUGG [C5G C46U]	0.77
AACACUGCCAAUGCCGGUCCAAAGCCCGGAUAAAAGUGCAGGGGGCGG [C21A G39C]	0.116
AACACUGCCAAUGCCGGUUCCAAGCCCGGAUAUAAGUGGAGGGGGCGG [C19U A33U]	0.86
AACACUGCCAAUGCCGGUCCCGAGCCCGGAUAAAAUUGGAGGGGGCGG [A22G G36U]	0.105
AACACUGCCAAUGCCGGUCCCAAGCCCGGAUAAAAGUGGUGGGGUCGG [A40U G45U]	0.177
AACUCUGCCAAUGCCGGUCCCAAGCCCGGAUAAAAGUGGAGGGGUCGG [A4U G45U]	0.124
AACACUGCCAAUGCCGAUCCCUAGCCCGGAUAAAAGUGGAGGGGGCGG [G17A A22U]	0.258
AACACUGCCAAUGCCGGUCCCAAGCCCGGAUAAAAGUGGAGGCGGAGG [G43C C46A]	0.111
AACACUGCCAAUGCCGGUCCCAAGCCCGCAUAAAAGUCGAGGGGGCGG [G29C G38C]	0.736
